The values that follow come from the Immune Epitope Database (IEDB).

One may read the Kd as the concentration at which binding is half-saturated. High values mean weaker binding, low ones tighter binding.

Assay [1] deals with HLA-B*27:03. In words: IEDB peptide-MHC binding, purified MHC/competitive/fluorescence; filed as Kd, often an IC50 or EC50 that approximates it; ≥ and ≤ were set here for values at or beyond the usual limits of such assays. Particulars: source organism: Lechiguanas virus.
Assay [2] addresses HLA-B*39:01. Described as above. Particulars: source organism: Lechiguanas virus.
Assay [3] deals with HLA-A*26:01. The assay is described as above. Particulars: source organism: Lechiguanas virus.
The target of assay [4] is HLA-B*51:01. Described as above. Particulars: source organism: Lechiguanas virus.
Assay [5] concerns the target HLA-B*15:17. Described as above. Particulars: source organism: Lechiguanas virus.
In a further assay the target is HLA-B*27:05. In words: IEDB peptide-MHC binding, purified MHC/direct/fluorescence; filed as Kd, often an IC50 or EC50 that approximates it; ≥ and ≤ were set here for values at or beyond the usual limits of such assays. Particulars: source organism: Orthohantavirus andesense.
Another assay concerns the target HLA-A*69:01. The description is as above.
In the next assay the target is HLA-B*44:02. Described as above. Particulars: source organism: Orthohantavirus andesense.
For another assay, the target named is HLA-A*29:02. The description is as above.
A further assay addresses HLA-A*24:03. The assay is described as above.
In the next assay the target is HLA-B*07:02. The description is as above. Particulars: source organism: Orthohantavirus andesense.
For the next assay, the target named is HLA-A*03:01. The assay is described as above.
A further assay addresses HLA-B*57:01. The description is as above.
The next assay has as its target HLA-A*01:01. Described as above. Particulars: source organism: Orthohantavirus andesense.
In another assay the target is HLA-B*08:01. The assay is described as above. Particulars: source organism: Orthohantavirus andesense.
Another assay deals with HLA-B*40:01. The description is as above. Particulars: source organism: Orthohantavirus andesense.
The target of another assay is HLA-B*18:01. The assay is described as above.
Another assay has as its target HLA-A*68:02. The assay is described as above.
The target in the next assay is HLA-B*48:01. Described as above. Particulars: source organism: Orthohantavirus andesense.
In the next assay the target is HLA-A*11:01. The description is as above. Particulars: source organism: Orthohantavirus andesense.
In a further assay the target is HLA-A*31:01. Described as above. Particulars: source organism: Orthohantavirus andesense.
The target of another assay is HLA-B*15:01. Described as above.
The target of a further assay is HLA-B*58:01. The assay is described as above. Particulars: source organism: Orthohantavirus andesense.
For a further assay, the target named is HLA-A*02:01. The assay is described as above.
The next assay deals with HLA-B*46:01. Described as above.
The next assay concerns the target HLA-A*02:12. Described as above.
In the next assay the target is HLA-A*23:01. The assay is described as above.
In assay [6] the target is HLA-B*27:03. The description is as above.
For the next assay, the target named is HLA-A*02:19. Described as above.
Assay [7] concerns the target HLA-A*26:01. The assay is described as above.
Another assay deals with HLA-A*02:16. Described as above.
Another assay has as its target HLA-A*02:03. The description is as above.
Assay [8] deals with HLA-B*51:01. The assay is described as above.
Assay [9] has as its target HLA-B*15:17. The description is as above.
A further assay deals with HLA-A*02:11. The assay is described as above.
Assay [10] deals with HLA-B*39:01. The assay is described as above. Particulars: source organism: Vibrio cholerae O395.
[11] abbreviates: source organism: Orthohantavirus andesense.
Setting [12] is: source organism: Rio Mamore hantavirus.
[13] abbreviates: source organism: Giardia lamblia ATCC 50803.
The mark [14] stands for this setting: source organism: Vibrio cholerae O395.

For the sequence YRRKLTNPA, the dissociation constant (Kd) in the assay with HLA-B*27:03 [1], in the assay with HLA-B*39:01 [2], in the assay with HLA-A*26:01 [3], with HLA-B*51:01 [4], with HLA-B*15:17 [5] and with HLA-B*27:05 was no less than 20 µM throughout. Further, the Kd in the assay with HLA-A*69:01 (setting [11]), in the assay with HLA-B*44:02, in the assay with HLA-A*29:02 (setting [11]), with HLA-A*24:03 (setting [12]), in the assay with HLA-B*07:02 and in the assay with HLA-A*03:01 (setting [11]) was no less than 20 µM each time. In addition, the Kd was no less than 20 µM with HLA-B*57:01 (setting [11]); no less than 20 µM with HLA-A*01:01; 1.12 µM with HLA-B*08:01; no less than 20 µM with HLA-B*40:01; no less than 20 µM with HLA-B*18:01 (setting [11]); no less than 20 µM with HLA-A*68:02 (setting [12]). Also, the Kd in the assay with HLA-B*48:01, with HLA-A*11:01, with HLA-A*31:01, with HLA-B*15:01 (setting [11]), in the assay with HLA-B*58:01 and in the assay with HLA-A*02:01 (setting [11]) was no less than 20 µM in each case. The Kd in the assay with HLA-B*46:01 (setting [11]), with HLA-A*02:12 (setting [12]) and with HLA-A*23:01 (setting [12]) was no less than 20 µM throughout.

MHDPHSIPL: the Kd in the assay with HLA-A*69:01 (setting [13]), with HLA-B*27:03 [6] (setting [13]), in the assay with HLA-A*29:02 (setting [13]), with HLA-A*24:03 (setting [13]), with HLA-A*02:19 (setting [13]) and in the assay with HLA-A*03:01 (setting [13]) was no less than 20 µM each time. The dissociation constant (Kd) in the assay with HLA-B*57:01 (setting [13]), with HLA-A*26:01 [7] (setting [13]), with HLA-A*02:16 (setting [13]), with HLA-B*18:01 (setting [13]), with HLA-A*68:02 (setting [13]) and in the assay with HLA-A*02:03 (setting [13]) was no less than 20 µM in each case. The Kd in the assay with HLA-B*15:01 (setting [13]), with HLA-B*51:01 [8] (setting [13]), with HLA-B*15:17 [9] (setting [13]), in the assay with HLA-A*02:01 (setting [13]), with HLA-B*46:01 (setting [13]) and with HLA-A*02:11 (setting [13]) was no less than 20 µM each time. Also, the equilibrium dissociation constant (Kd) in the assay with HLA-A*02:12 (setting [13]) and with HLA-A*23:01 (setting [13]) was no less than 20 µM in each case.

For VVSEIDLQW, the Kd with HLA-A*69:01 (setting [14]), with HLA-B*27:03 [6] (setting [14]), with HLA-A*29:02 (setting [14]), with HLA-A*24:03 (setting [14]), in the assay with HLA-A*02:19 (setting [14]) and with HLA-A*03:01 (setting [14]) was no less than 20 µM in each case. In addition, the Kd with HLA-B*57:01 (setting [14]), with HLA-B*39:01 [10], in the assay with HLA-A*26:01 [7] (setting [14]), with HLA-A*02:16 (setting [14]), with HLA-B*18:01 (setting [14]) and in the assay with HLA-A*68:02 (setting [14]) was no less than 20 µM in each case. Besides, the dissociation constant Kd with HLA-A*02:03 (setting [14]) is no less than 20 µM; with HLA-B*15:01 (setting [14]) it was no less than 20 µM; in the assay with HLA-B*51:01 [8] (setting [14]), no less than 20 µM; in the assay with HLA-B*15:17 [9] (setting [14]) it was 0.002 µM; with HLA-A*02:01 (setting [14]) it was no less than 20 µM; with HLA-B*46:01 (setting [14]) it was no less than 20 µM. Besides, the dissociation constant Kd with HLA-A*02:11 (setting [14]), in the assay with HLA-A*02:12 (setting [14]) and with HLA-A*23:01 (setting [14]) was no less than 20 µM in each case.
